In general, Kd refers to the free concentration of one partner at which half of the binding sites on the other are occupied at equilibrium, for simple one-to-one binding. Low readings indicate tighter binding, high ones weaker binding.

These results are taken from US20210388110A1 (published 2021).

The assay has as its target T1, soluble human CD3ε chain (human, UniProt P07766 23-126, limits assumed).
T1 construct: the text says soluble human CD3ε chain; also called human CD3 epsilon chain
The experiment in a line: SPR (Biacore).

T1 sequence (P07766 23-126 limits assumed): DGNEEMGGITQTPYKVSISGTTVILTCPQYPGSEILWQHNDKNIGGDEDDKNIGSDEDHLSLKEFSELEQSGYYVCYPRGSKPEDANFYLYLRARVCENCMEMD

B1: TR01H082-E22Hh/none-Hi-Kn010G3/TR01L018-k0 (antibody, human IgG1, kappa, L234A L235A, N297A)
heavy: QVQLVESGGGLVQPGRSLRLSCAASGFTFSNAWMHWVRQAPGKGLEWVAQIKDKSQNYATYYAESVKGRFTISRDDSKNSLYLQMNSLKTEDTAVYYCRYVHYAAGYGVDAWGQGTTVTVSSASTKGPSVFPLAPSSKSTSGGTAALGCLVKDYFPEPVTVSWNSGALTSGVHTFPAVLQSSGLYSLSSVVTVPSSSLGTQTYICNVNHKPSNTKVDKKVEPKSCDKTHTCPPCPAPEAAGGPSVFLFPPKPKDTLMISRTPEVTCVVVDVSHEDPEVKFNWYVDGVEVHNAKTKPREEQYASTYRVVSVLTVLHQDWLNGKEYKCKVSNKALPAPIEKTISKAKGQPREPQVYTLPPSRCELTKNQVSLSCAVKGFYPSDIAVEWESNGQPENNYKTTPPVLDSDGSFFLVSKLTVDKSRWQQGNVFSCSVMHEALHNHYTQKSLSLSPDYKDDDDK
chain: EPKSSDKTHTCPPCPAPELLGGPSVFLFPPKPKDTLMISRTPEVTCVVVDVSHEDPEVKFNWYVDGVEVHNAKTKPREEQYNSTYRVVSVLTVLHQDWLNGKEYKCKVSNKALPAPIEKTISKAKGQPREPQVCTLPPSRDELTKNQVSLWCLVKGFYPSDIAVEWESNGQPENNYKTTPPVLDSDGSFFLYSKLTVDKSRWQQGNVFSCSVMHEALHNRYTQKSLSLSP
light: DIVMTQSPLSLPVTPGEPASISCQASESPVHSNRNTYLHWYLQKPGQSPQLLIYKVSNRFSGVPDRFSGSGSGTDFTLKISRVEAEDVGVYYCGQGTQVPYTFGQGTKLEIKRTVAAPSVFIFPPSDEQLKSGTASVVCLLNNFYPREAKVQWKVDNALQSGNSQESVTEQDSKDSTYSLSSTLTLSKADYEKHKVYACEVTHQGLSSPVTKSFNRGEC
notes: single-arm
B1 registered a Kd of 47.2 nM.

B2: TR01H083-E22Hh/none-Hi-Kn010G3/L0000-k0 (antibody, human IgG1, kappa, L234A L235A, N297A)
heavy: QVQLVESGGGLVQPGRSLRLSCAASGFTFSNAWMHWVRQAPGKGLEWVAQIKDKSNNYATYYAESVKGRFTISRADSKNSIYLQMNSLKTEDTAVYYCRYVHYAAGYGVDIWGQGTTVTVSSASTKGPSVFPLAPSSKSTSGGTAALGCLVKDYFPEPVTVSWNSGALTSGVHTFPAVLQSSGLYSLSSVVTVPSSSLGTQTYICNVNHKPSNTKVDKKVEPKSCDKTHTCPPCPAPEAAGGPSVFLFPPKPKDTLMISRTPEVTCVVVDVSHEDPEVKFNWYVDGVEVHNAKTKPREEQYASTYRVVSVLTVLHQDWLNGKEYKCKVSNKALPAPIEKTISKAKGQPREPQVYTLPPSRCELTKNQVSLSCAVKGFYPSDIAVEWESNGQPENNYKTTPPVLDSDGSFFLVSKLTVDKSRWQQGNVFSCSVMHEALHNHYTQKSLSLSPDYKDDDDK
chain: EPKSSDKTHTCPPCPAPELLGGPSVFLFPPKPKDTLMISRTPEVTCVVVDVSHEDPEVKFNWYVDGVEVHNAKTKPREEQYNSTYRVVSVLTVLHQDWLNGKEYKCKVSNKALPAPIEKTISKAKGQPREPQVCTLPPSRDELTKNQVSLWCLVKGFYPSDIAVEWESNGQPENNYKTTPPVLDSDGSFFLYSKLTVDKSRWQQGNVFSCSVMHEALHNRYTQKSLSLSP
light: DIVMTQSPLSLPVTPGEPASISCRSSQSLVHSNRNTYLHWYQQKPGQAPRLLIYKVSNRFSGVPDRFSGSGSGTDFTLKISRVEAEDVGVYYCGQGTQVPYTFGQGTKLEIKRTVAAPSVFIFPPSDEQLKSGTASVVCLLNNFYPREAKVQWKVDNALQSGNSQESVTEQDSKDSTYSLSSTLTLSKADYEKHKVYACEVTHQGLSSPVTKSFNRGEC
notes: single-arm
As for B2, the Kd worked out at 6.83 nM.

B3: TR01H083-E22Hh/none-Hi-Kn010G3/L0011-k0 (antibody, human IgG1, kappa, L234A L235A, N297A)
heavy: QVQLVESGGGLVQPGRSLRLSCAASGFTFSNAWMHWVRQAPGKGLEWVAQIKDKSNNYATYYAESVKGRFTISRADSKNSIYLQMNSLKTEDTAVYYCRYVHYAAGYGVDIWGQGTTVTVSSASTKGPSVFPLAPSSKSTSGGTAALGCLVKDYFPEPVTVSWNSGALTSGVHTFPAVLQSSGLYSLSSVVTVPSSSLGTQTYICNVNHKPSNTKVDKKVEPKSCDKTHTCPPCPAPEAAGGPSVFLFPPKPKDTLMISRTPEVTCVVVDVSHEDPEVKFNWYVDGVEVHNAKTKPREEQYASTYRVVSVLTVLHQDWLNGKEYKCKVSNKALPAPIEKTISKAKGQPREPQVYTLPPSRCELTKNQVSLSCAVKGFYPSDIAVEWESNGQPENNYKTTPPVLDSDGSFFLVSKLTVDKSRWQQGNVFSCSVMHEALHNHYTQKSLSLSPDYKDDDDK
chain: EPKSSDKTHTCPPCPAPELLGGPSVFLFPPKPKDTLMISRTPEVTCVVVDVSHEDPEVKFNWYVDGVEVHNAKTKPREEQYNSTYRVVSVLTVLHQDWLNGKEYKCKVSNKALPAPIEKTISKAKGQPREPQVCTLPPSRDELTKNQVSLWCLVKGFYPSDIAVEWESNGQPENNYKTTPPVLDSDGSFFLYSKLTVDKSRWQQGNVFSCSVMHEALHNRYTQKSLSLSP
light: DIVMTQSPLSLPVTPGEPASISCRSSQPLVHSNRNTYLHWYQQKPGQAPRLLIYKVSNRFSGVPDRFSGSGSGTDFTLKISRVEAEDVGVYYCGQGTQVPYTFGQGTKLEIKRTVAAPSVFIFPPSDEQLKSGTASVVCLLNNFYPREAKVQWKVDNALQSGNSQESVTEQDSKDSTYSLSSTLTLSKADYEKHKVYACEVTHQGLSSPVTKSFNRGEC
notes: single-arm
On to B3, for which the Kd stood at 6.7 nM.

B4: TR01H082-E22Hh/none-Hi-Kn010G3/TR01L023-k0 (antibody, human IgG1, kappa, L234A L235A, N297A)
heavy: QVQLVESGGGLVQPGRSLRLSCAASGFTFSNAWMHWVRQAPGKGLEWVAQIKDKSQNYATYYAESVKGRFTISRDDSKNSLYLQMNSLKTEDTAVYYCRYVHYAAGYGVDAWGQGTTVTVSSASTKGPSVFPLAPSSKSTSGGTAALGCLVKDYFPEPVTVSWNSGALTSGVHTFPAVLQSSGLYSLSSVVTVPSSSLGTQTYICNVNHKPSNTKVDKKVEPKSCDKTHTCPPCPAPEAAGGPSVFLFPPKPKDTLMISRTPEVTCVVVDVSHEDPEVKFNWYVDGVEVHNAKTKPREEQYASTYRVVSVLTVLHQDWLNGKEYKCKVSNKALPAPIEKTISKAKGQPREPQVYTLPPSRCELTKNQVSLSCAVKGFYPSDIAVEWESNGQPENNYKTTPPVLDSDGSFFLVSKLTVDKSRWQQGNVFSCSVMHEALHNHYTQKSLSLSPDYKDDDDK
chain: EPKSSDKTHTCPPCPAPELLGGPSVFLFPPKPKDTLMISRTPEVTCVVVDVSHEDPEVKFNWYVDGVEVHNAKTKPREEQYNSTYRVVSVLTVLHQDWLNGKEYKCKVSNKALPAPIEKTISKAKGQPREPQVCTLPPSRDELTKNQVSLWCLVKGFYPSDIAVEWESNGQPENNYKTTPPVLDSDGSFFLYSKLTVDKSRWQQGNVFSCSVMHEALHNRYTQKSLSLSP
light: DIVMTQSPLSLPVTPGEPASISCRSSQSPVHSNRNTYLHWYLQKPGQSPQLLIYKVSNRFSGVPDRFSGSGSGTDFTLKISRVEAEDVGVYYCTQGTQVPYTFGQGTKLEIKRTVAAPSVFIFPPSDEQLKSGTASVVCLLNNFYPREAKVQWKVDNALQSGNSQESVTEQDSKDSTYSLSSTLTLSKADYEKHKVYACEVTHQGLSSPVTKSFNRGEC
notes: single-arm
For the molecule B4, the Kd turned out to be 42.5 nM.

B5: TR01H083-E22Hh/none-Hi-Kn010G3/L0201-k0 (antibody, human IgG1, kappa, L234A L235A, N297A)
heavy: QVQLVESGGGLVQPGRSLRLSCAASGFTFSNAWMHWVRQAPGKGLEWVAQIKDKSNNYATYYAESVKGRFTISRADSKNSIYLQMNSLKTEDTAVYYCRYVHYAAGYGVDIWGQGTTVTVSSASTKGPSVFPLAPSSKSTSGGTAALGCLVKDYFPEPVTVSWNSGALTSGVHTFPAVLQSSGLYSLSSVVTVPSSSLGTQTYICNVNHKPSNTKVDKKVEPKSCDKTHTCPPCPAPEAAGGPSVFLFPPKPKDTLMISRTPEVTCVVVDVSHEDPEVKFNWYVDGVEVHNAKTKPREEQYASTYRVVSVLTVLHQDWLNGKEYKCKVSNKALPAPIEKTISKAKGQPREPQVYTLPPSRCELTKNQVSLSCAVKGFYPSDIAVEWESNGQPENNYKTTPPVLDSDGSFFLVSKLTVDKSRWQQGNVFSCSVMHEALHNHYTQKSLSLSPDYKDDDDK
chain: EPKSSDKTHTCPPCPAPELLGGPSVFLFPPKPKDTLMISRTPEVTCVVVDVSHEDPEVKFNWYVDGVEVHNAKTKPREEQYNSTYRVVSVLTVLHQDWLNGKEYKCKVSNKALPAPIEKTISKAKGQPREPQVCTLPPSRDELTKNQVSLWCLVKGFYPSDIAVEWESNGQPENNYKTTPPVLDSDGSFFLYSKLTVDKSRWQQGNVFSCSVMHEALHNRYTQKSLSLSP
light: DIVMTQSPLSLPVTPGEPASISCRSSQPPVHSNRNTYLHWYQQKPGQAPRLLIYKVSNRFSGVPDRFSGSGSGTDFTLKISRVEAEDVGVYYCGQGTQVPYTFGQGTKLEIKRTVAAPSVFIFPPSDEQLKSGTASVVCLLNNFYPREAKVQWKVDNALQSGNSQESVTEQDSKDSTYSLSSTLTLSKADYEKHKVYACEVTHQGLSSPVTKSFNRGEC
notes: single-arm
Regarding B5, binding was put at a Kd of 4.42 nM.

B6: TR01H082-E22Hh/none-Hi-Kn010G3/TR01L024-k0 (antibody, human IgG1, kappa, L234A L235A, N297A)
heavy: QVQLVESGGGLVQPGRSLRLSCAASGFTFSNAWMHWVRQAPGKGLEWVAQIKDKSQNYATYYAESVKGRFTISRDDSKNSLYLQMNSLKTEDTAVYYCRYVHYAAGYGVDAWGQGTTVTVSSASTKGPSVFPLAPSSKSTSGGTAALGCLVKDYFPEPVTVSWNSGALTSGVHTFPAVLQSSGLYSLSSVVTVPSSSLGTQTYICNVNHKPSNTKVDKKVEPKSCDKTHTCPPCPAPEAAGGPSVFLFPPKPKDTLMISRTPEVTCVVVDVSHEDPEVKFNWYVDGVEVHNAKTKPREEQYASTYRVVSVLTVLHQDWLNGKEYKCKVSNKALPAPIEKTISKAKGQPREPQVYTLPPSRCELTKNQVSLSCAVKGFYPSDIAVEWESNGQPENNYKTTPPVLDSDGSFFLVSKLTVDKSRWQQGNVFSCSVMHEALHNHYTQKSLSLSPDYKDDDDK
chain: EPKSSDKTHTCPPCPAPELLGGPSVFLFPPKPKDTLMISRTPEVTCVVVDVSHEDPEVKFNWYVDGVEVHNAKTKPREEQYNSTYRVVSVLTVLHQDWLNGKEYKCKVSNKALPAPIEKTISKAKGQPREPQVCTLPPSRDELTKNQVSLWCLVKGFYPSDIAVEWESNGQPENNYKTTPPVLDSDGSFFLYSKLTVDKSRWQQGNVFSCSVMHEALHNRYTQKSLSLSP
light: DIVMTQSPLSLPVTPGEPASISCQASESPVHSNRNTYLHWYLQKPGQSPQLLIYKVSNRFSGVPDRFSGSGSGTDFTLKISRVEAEDVGVYYCTQGTQVPYTFGQGTKLEIKRTVAAPSVFIFPPSDEQLKSGTASVVCLLNNFYPREAKVQWKVDNALQSGNSQESVTEQDSKDSTYSLSSTLTLSKADYEKHKVYACEVTHQGLSSPVTKSFNRGEC
notes: single-arm
B6 returned a Kd of 47.6 nM.
